We go through four molecules from patent publication US7101851 (dated 2006).

Experiment [1] has as its target T1, extracellular domain of the alpha subunit of the human FcεRI (aa 1-176) (human, UniProt P12319 26-201).
T1 construct: range 1-176; also called soluble FcεRI; baculovirus-derived FcεRI
T1 sequence (looked up): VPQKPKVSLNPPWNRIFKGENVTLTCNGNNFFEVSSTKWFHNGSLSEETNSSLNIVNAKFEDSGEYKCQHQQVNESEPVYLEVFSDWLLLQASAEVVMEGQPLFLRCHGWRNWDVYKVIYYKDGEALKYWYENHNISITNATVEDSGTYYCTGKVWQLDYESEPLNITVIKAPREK
Nature of the experiment: competitive phage ELISA on FcεRI (FIG. 2). On the procedure:
Phage ELISA assays were carried out as described (Lowman, 1998, supra), using Nunc Maxisorp™ plates coated with a 2 μg/mL solution of baculovirus-derived FcεRI. Peptide-phage were pre-incubated for 5–10 min with serial dilutions of receptor, then added to the receptor-coated plate. After incubation for 1 h at room temperature, the plates were washed and an anti-phage HRP-conjugated antibody (Pharmacia) was added. After further incubation for 20 min, plates were again washed and developed using the substrate OPD (Sigma). Optical density at 492 nm was read and plotted as a function of FcεRI concentration to determine an $IC50$ of inhibition by each peptide-phage variant.
These libraries were sorted for FcεRI binding as described above. […] The "linker region" (underlined) of the peptide was randomized in this library.

The target of experiment [2] is T2, alpha subunit of the human FcεRI receptor expressed on cells (human, UniProt P12319 26-257).
T2 construct: whole, on cells; on rat basophil RBL-48 cells in the histamine release assay; also called CHO FcεRI+ cells; cell surface expressed FcεRI
T2 sequence (looked up): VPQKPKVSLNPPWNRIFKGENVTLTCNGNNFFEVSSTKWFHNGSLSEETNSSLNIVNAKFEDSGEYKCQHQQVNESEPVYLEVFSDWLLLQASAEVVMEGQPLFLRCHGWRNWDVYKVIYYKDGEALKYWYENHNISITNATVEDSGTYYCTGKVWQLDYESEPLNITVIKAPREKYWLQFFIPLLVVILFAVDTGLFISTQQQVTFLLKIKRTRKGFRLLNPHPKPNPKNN
Nature of the experiment: inhibition of 125I-IgE binding to CHO cells expressing FcεRI alpha; freshly dissolved peptide (monomer). The procedure:
To determine the ability of peptides to inhibit IgE binding to FcεRI, a cell-based binding assay was used with radiolabeled IgE. Chinese hamster ovary cells expressing the alpha subunit of the human FcεRI receptor were cultured overnight in Falcon 96 well microtiter plates at a concentration of 5 ×10^4 cells per well. The following day the cells were rinsed three times with PBS and then once with F12/DMEM. Peptide stocks were reconstituted in 100 mM Hepes buffered water, pH 7.2, at a concentration of 5 mg/mL. Working concentrations of the peptide were diluted in assay buffer (see below). 75 uL of a desired concentration of peptide was added to the top row of a separate 96 well microtiter plate and serially diluted 1:3 in 50 uL of the assay buffer (F12/DMEM, 1% BSA, 0.05% NaN_3 and 0.025 mM Hepes pH 7.2). Starting concentrations ranged from 50–500 uM. Next, 50 uL of the diluted peptide was transferred to the 96 microtiter well plate containing a monolayer of CHO FcεRI+ cells. […] Cells were […]

Experiment [3] has as its target T2, alpha subunit of the human FcεRI …. Nature of the experiment: inhibition of 125I-IgE binding to CHO cells expressing FcεRI alpha; 7-10 days after dissolving, when the homodimer had formed. On the procedure: To determine the ability of peptides to inhibit IgE binding to FcεRI, a cell-based binding assay was used with radiolabeled IgE. Chinese hamster ovary cells expressing the alpha subunit of the human FcεRI receptor were cultured overnight in Falcon 96 well microtiter plates at a concentration of 5 ×10^4 cells per well. The following day the cells were rinsed three times with PBS and then once with F12/DMEM. Peptide stocks were reconstituted in 100 mM Hepes buffered water, pH 7.2, at a concentration of 5 mg/mL. Working concentrations of the peptide were diluted in assay buffer (see below). 75 uL of a desired concentration of peptide was added to the top row of a separate 96 well microtiter plate and serially diluted 1:3 in 50 uL of the assay buffer (F12/DMEM, 1% BSA, 0.05% NaN_3 and 0.025 mM Hepes pH 7.2). Starting concentrations ranged from 50–500 uM. Next, 50 uL of the diluted peptide was transferred to the 96 microtiter well plate containing a monolayer of CHO FcεRI+ cells. […] Cells were
The size of each peptide was confirmed by mass spectrometry. […] This increase over time was not observed with the other peptides.

The target in experiment [4] is T3, FcεRI-IgG (UniProt P12319 26-205).
T3 construct: extracellular domain; Produced from CHO cells (Genentech); also called FcεRI-Fc; bivalent fusion protein of the extracellular domain of FcεRI and the Fc domain of IgG; not shown: Fc domain of IgG
T3 sequence (looked up): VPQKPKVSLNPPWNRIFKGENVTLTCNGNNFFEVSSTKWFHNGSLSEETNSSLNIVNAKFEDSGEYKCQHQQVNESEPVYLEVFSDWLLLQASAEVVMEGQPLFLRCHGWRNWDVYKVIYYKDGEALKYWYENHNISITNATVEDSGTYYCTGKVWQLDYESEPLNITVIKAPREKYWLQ
Nature of the experiment: competitive phage ELISA: g3 peptide-phage on immobilized FcεRI-IgG, soluble FcεRI-IgG titrated. The procedure: (§1) This oligonucleotide was annealed with a g3 single stranded DNA phagemid template. The mutagenesis reaction was transformed into XL-1 Blue *E. coli* and plated on LB-carb+ agar plates. Individual colonies were propagated in 5 mL of 2YT broth, tetracycline, carbenicillin and VCSM13 helper phage (Stratagene). Single stranded DNA was isolated from the purified phage particles and sequenced to confirm the insertion of the phage peptide sequence. 25 mL preparations of g3 phage clones were propagated overnight and purified by PEG precipitation. After resuspension of the phage pellet in 1.0 mL of PBS, it was serially diluted 1/3 and incubated with immobilized FcεRI-IgG 2 ug/mL in a 96 well Maxisorp microtiter plate for 1 hour at room temperature. The wells were washed 10× with PBST then incubated with 100 uL of anti M13 phage HRP as described above. An OD(492) value corresponding to less than 50% binding was selected and the purified phage clones were diluted to yield this normalized level of signal. […] The mixture was then transferred to 96 well microtiter dishes containing immobilized FcεRI-IgG. After a 1-hour incubation period, the plates were washed 10 times, incubated with anti M13-HRP conjugated antibody and developed with OPD as described above.
In addition, stepwise N-terminal and C-terminal truncations of the peptide sequence were constructed. All constructs were made by designing oligonucleotides corresponding to the desired substitution or truncation, with an additional 18 bp of DNA overlapping the peptide or g3 phage DNA sequence. The phage clones were propagated overnight following infection in XL-1 Blue *E. coli*. Purified phage preparations were titered and assayed for binding to immobilized receptor. FcεRI-IgG competition assays were performed as described above.
On the technique in general: In an ELISA, binding on a coated surface is turned into a signal by an enzyme label.

The target in experiment [5] is T3, FcεRI-IgG. Nature of the experiment: competitive phage ELISA; reference of the N-terminal truncation series. On the procedure: as §1
(§2) In addition, stepwise N-terminal and C-terminal truncations of the peptide sequence were constructed. […]

Experiment [6] addresses T3, FcεRI-IgG. Nature of the experiment: competitive phage ELISA; reference of the C-terminal truncation series. The procedure: as §1, §2
The target of experiment [7] is T1, extracellular domain of the alpha …. Nature of the experiment: competitive phage ELISA on FcεRI (FIG. 1).

Where “and” joins values, the source holds several entries; their conditions need not be identical. Equal values may be shown once. Bridges are numbered along the chain shown (N, C = ends). Where no end group is shown, it is not given here.

B1: phage clone IVCPRLCYELDYELCPDVCYV from the IGE120-phage library (NBO895-619D) (peptide)
peptide: IVCPRLCYELDYELCPDVCYV
notes: not shown: M13 g3p display
Consider B1, for which the “fold improved affinity over IGE120” value in experiment [1] is approximately 2 fold.

B2: IGE037 (peptide)
peptide: ALCPAVCYV-NH2
modifications: disulfide 3-7 (inferred); also: reshuffles over 3-12 days into disulfide-linked homodimer, held to be active form
notes: Made as a cyclic monomer
Regarding B2, the 50% inhibitory concentration (IC50) was approximately 300 µM in experiment [2] and 25 µM in experiment [3].

B3: g3c.42 peptide-phage (peptide)
peptide: NLPRCTEGPWGWVCMAAD
modifications: not fully specified (bridges); cysteine pairing not given here
notes: Monovalent g3p phage display; not shown: fused to M13 gene-3 protein (g3p) on phage
For B3, the IC50 in experiment [4] was 0.0056 µM and 0.0031 µM. Besides, the “Relative (IC50) (fold weaker)” value in experiment [5] and in experiment [6] was 1 fold throughout.

B4: IGE122-phage VQCPHFCYVGGKALCPDVCYV (peptide)
peptide: VQCPHFCYVGGKALCPDVCYV
notes: not shown: M13 g3p display
B4: the binding result in experiment [7] is recorded as “binds”.

For orientation: IC50 means the concentration that gives 50% inhibition.
